In the DeepSol protein solubility set:

Assay: soluble on expression in E. coli; label from the status in PepcDB or PDB records

Sequence | soluble on expression in E. coli
MSKGKVCLAYSGGLDTSVILAWLLDQGYEVVAFMANVGQEEDFDAAKEKALKIGACKFVCVDCREDFVKDILFPAVQVNAVYEDVYLLGTSLARPVIAKAQIDVAKQEGCFAVSHGCTGKGNDQIRFELSFYALKPDVKCITPWRMPEFFERFAGRKDLLDYAAQKGIPVAQTKAKPWSTDENQAHISYEAGILEDPDTTPPKDMWKLIVDPMDAPDQPQDLTIDFERGLPVKLTYTDNKTSKEVSVTKPLDVFLAASNLARANGVGRIDIVEDRYINLKSRGCYEQAPLTVLRKAHVDLEGLTLDKEVRQLRDSFVTPNYSRLIYNGFLLHPECEYIRSMIQPSQNSVNGTVRVRLYKGNVIILGRSTKTEKLYDPTESSMDELTGFLPTDTTGFIAIQAIRIKKYGESKKTKGEELTL | soluble
IPGKDVAVTAGRVVFQNHLIELIQYEAQTKTVYKEPILILPAWIMKYYILDLSPHNSLVKWLVKQGHTVFIISWRNPDKEDCDLGMDDYYRLGAMAAIDMVSTILPETKINLMGYCLGGTLAMITASMMGRYEDERLNCLTLLAAQGDFSEAGELMLFVNESQVDFLKSMMWEQGYLDTKQMAGSFQMLRAYDLIWSKMVQDYMHGMRRGMIDLTAWNADATRMPYKMHSEYLEKLFLNNDFAEGRYMVEGKSVAAENIQCPIFAVSTKKDHVAPWQSVYKIHLMTEENVTFVLTGGGHN | not soluble
MGSDKIHHHHHHKIKQTAGRDQLGTFAPKFAELNDDILFGEVWSRTEQLGLRDRSLVTITSLISQGITDSSLTFHLQSAKNNGITRTEIAEIITHIGFYAGWPKAWAAFRLAKEVWNEDISCKDKDEKTTFQREMIFPIGEPNTAYAQYFTGNSYLAPISREQASISNVTFEPRCRNNWHIHHATQGGGQMLIGIAGRGWYQEEGKAAVEILPGTVIHIPANVKHWHGAAANSWFAHLAFELSGENTSNEWLEPVTDEEYDKIQMLP | not soluble
MGSDKIHHHHHHMNFPIDEKLIREKQNELHIKDLGMASIRDLVALVTNLEKATGTKFCRMEMGVPGLPAPQIGIETEIQKLREGVASIYPNLDGLPELKQEASRFAKLFVNIDIPARACVPTVGSMQGCFVSFLVANRTHKNREYGTLFIDPGFNLNKLQCRILGQKFESFDLFEYRGEKLREKLESYLQTGQFCSIIYSNPNNPTWQCMTDEELRIIGELATKHDVIVIEDLAYFGMDFRKDYSHPGEPLYQPSVANYTDNYILALSSSKAFSYAGQRIGVLMISGKLYEREYPDLEESFGRLRFGEALSSSALYALSSGATHSAQWGMAAMLKACNDGEYNFRDSVIEYGRKARIMKKMFLDNGFNIVYDKDGNEPLADGFYFTVGYKGMDSSKLIEKFVRYGMCAITLKTTGSKRNEAMRICTSLLPESQFPDLEKRLQMLNAEG | not soluble
MPTLRFRQKVVHKLNNSGIIARPKTVIHPIKMKTTLIAAAEVDRLETWQRYTSNMCHGCHSTCCTLPVEVKIKDLIRIGVVDEFEKDEPPKNVAKRLQKEGIIERFNQKSGIFTLTRMSNDDCMYLDRKSRLCTIYDKRPDTCRNHPKVGPRPGYCAYKPKVVGRLEHHHHHH | not soluble
MKLYMSVDMEGISGLPDDTFVDSGKRNYERGRLIMTEEANYCIAEAFNSGCTEVLVNDSHSKMNNLMVEKLHPEADLISGDVKPFSMVEGLDDTFRGALFLGYHARASTPGVMSHSMIFGVRHFYINDRPVGELGLNAYVAGYYDVPVLMVAGDDRAAKEAEELIPNVTTAAVKQTISRSAVKCLSPAKRGRLLTEKTAFALQNKDKVKPLTPPDRPVLSIEFANYGQAEWANLMPGTEIKTGTTTVQFQAKDMLEAYQAMLVMTELAMRTSFC | soluble
TTEEKKEEFLATVIDSVGDGVIVIDLDGRIALMNPAAEEISGISRRQAVGHRFALVFHREAVLREMVGKTATSGMTISDHENIVIRKLKQLTPVSATTFPLMLPHGETTGTILVLRD | not soluble
MGFFSRDIQTMEDLLLHGLRDIYYAEQQITKALPKMIEQATNRDLSQGLTSHLEETQKQIERLDQVFKKLGQKPSGVNCPAIDGLIKEADETAGEIADKTVLDAAIVANAQAVEHYEIARYGTLIAWAEELGHDDIVRFLTTNLNEEKAANTKLNTVALRKGVNRKAAS | soluble
MHALVQLRGEVNMHTDIQDTLEMLNIHHVNHCTLVPETDAYRGMVAKVNDFVAFGEPSQETLETVLATRAEPLEGDADVDDEWVAEHTDYDDISGLAFALLSEETTLREQGLSPTLRLHPPRGGHDGVKHPVKEGGQLGKHDTEGIDDLLEAMR | soluble
MAHHHHHHMNQDLDKELREALQQDKYDLQLFLRFLKSYVVSGSQPEKQLLLGILLQALPRFHTSDFSACISLISSHVQDASYIEKDIILIYDLENYLSSGNFPQFWQVWRESEGTLPARPSFEPNMRAAILTVIGCTLGHIQTKDLSVYLGLKSGEKLEEVLREAARIAGDAVQLVGADEQAVVFQKSVFNAPESDSNQELKRFSDTVTIVSL | soluble
MGSDKIHHHHHHMIDPDDMDHCRHAIREGSYSFHAASKLLPSSVRDPALALYAFCRLADDEVDFGADKPAAVLALSERLEHAYQGRPRNHPTDRAFTAMIEEFDMPRALPEALLEGLAWDGMERRYATLSDLRSYSARVASAVGAMMCVLMRVRDEQALARACDLGVAMQLTNIARDVGEDAAERRLYLPTDWLEEEGIDIERLFTSPVSSPRLKRLTKRLLAEAHKLYLKSEPGIGRLPLAARPGIFAARHCYDAIGRNLAQHGYDNVNRRATTTGGHKMRLLGLSIVRAGLASILPESPVIFARPLPETAFLVEAAAHPAPNKDAWSDPLLSVLSQLKAQDRPHAAE | not soluble
QSPAEIASFSPRPSLADSKAVLNQAVADLSVAHSILHQVHWYMRGRGFMIWHPKMDEYMEEIDGYLDEMSERLITLGGAPFSTLKEFSENSQLKEVLGDYNVTIEEQLARVVEVFRYLAALFQKGFDVSDEEGDSVTNDIFNVAKASIEKHIWMLQAELGQAPKL | soluble
MSLQKMKSSRKFLEGEPNIVIRKGELQYKVMKKNKIDINQLQSLLRQAGSFSIQEVEYAILETNGMVSVLPKSDFDKPTNKDLQIPSKSVSLPITLIIDGEIVRDNLKEAGVDEQWLKQELKKKNIDKTEDVLFAEWHKNKPLYTVTYEQSKGHHHHHH | soluble
MGSDKIHHHHHHMTTNSLLIIDFEFTMPDGKYSPQNFFPEIIEAGIVKSIDDEVVETFSSYVRPKKFPKLTKRCKSFLKITQKQVDEGMRFEDFIRKLNELDPEKNSTIITWGNMDMKVLKQNCMFNHIPFPFKGEMRDLSLEYKNFFGDRTLTGLWKAAEEYGDSGTGTHHKALDDALTAYKLFKLVEQDKQYLEKPKPPTIGERIDLTELLKRAT | not soluble
MNTGAQIYRNSSSSIDKNIVDRIYKDGFLIAQYGLYMKRERDYKTFKVPVDAGFSCPNKDGTIDTRGCIFCPKMGRPISVEYCNIKYSLKDQIETQVKQNKEKGIGKFYVYFYPGTNTHGTPERLKELWDYALSFEDVIGISIGTRPDCLEDEKLDILENYVKQGYEIWIDLGIQTMHDKTLDFLNRKHSSNDIRRVLIECKKRGILVCGHIILGLPDESWNMMMETSKMLSDLEIDALKIYPLVVIENTELEEIYWKGEYKSLDEKQYIHLVSDFLEHLSPYVIIQRVSKDKVPDEIKISPEWSLRRLRILNEVSKELARRNSKQGSKYKK | not soluble
MGKWRYLAIGVCLMTTSGVTFADSLDAQRQRYQQVKLAWDSNQMDTVAQLMPTLRDYPLYPYLEYRQLTQDLSQVSTAQVKDFLNRHPTLPPAKSLPSRFVNELARREDWRGLLTFSPTAPKPVAARCNYYYAKWATGEQSVAWEGASEIWLNGQSLPGSCDKLFSVWQQAGHQTPLATLARMKLALKEGNASLVSYLLKQLPADYQTMGTALAKLQSDPSSVESFARTVGPTDFTRSATTIAFTRLARQDVENARLMIPSLVRLQKMSDSEKLELEEAVAWRLMGNDATYEQAKWRDQVALRSHSTSLLERRIRMSLGSGDRQGLATWLARLPAEAQDKDEWRYWRASLLLEQGKKAEGEAILRSLTKERGFYPMVAAQKLNIPYPIKVQVAAKPDVSLAQRPEIARVRELMYWNMDNQARAEWSYLVASRSKAEQEALARYAFDQKWADLSVQATIVAKLWDHLEERFPMAWTKEFRQFTEDKGITPSYAMAIARQESAWNPKAQSPVGATGLMQVMPRTAEHTVKRNNIAGYLNSSQLLDPVTNIEIGTYYLEEVYQQFGRNRILSSAAYNAGPSRVNTWLGNSGGQVDAVAFIESIPFSETRGYVKNVLAYDAFYRHFMNRPAKVLSDAEWQRRY | soluble
